How the values were obtained:
[1] = target: T1, human VEGF-A (human, UniProt P15692-4 27-191, limits assumed); experiment: ELISA, EC50 comparison
T1 construct: Recombinant, bought or produced in CHO or Pichia pastoris; also called hVEGF-A

[2] = target: T2, human HGF (human, UniProt P14210 32-728); experiment: ELISA, EC50 comparison
T2 construct: also called hepatocyte growth factor

[3] = target: T2, human HGF; experiment: ELISA; species of HGF not stated
[4] = target: T1, human VEGF-A; experiment: ELISA; species of VEGF-A not stated
[5] = target: T3, human serum albumin (human, UniProt P02768 25-609); experiment: ELISA, immobilised human serum albumin
T3 construct: For SEC-MALS purified from CSL Behring 20% solution; also called HSA; SA (human)
Method: 100 μl or 50 μl of 20 nM target (VEGF-A, HGF, or serum albumin) in PBS per well were immobilized in a Maxisorp plate (Nunc, Denmark) overnight at 4° C. After washing 5 times with 300 μl PBST (PBS supplemented with 0.1% Tween 20), the wells were blocked with 300 μl PBST-C (PBST supplemented with 0.25% casein) for 2 h at room temperature with shaking at 450 rpm on a Titramax 1000 shaker (Heidolph, Germany). […] After washing 5 times as described above, bound anti-designed ankyrin repeat domain antibody was detected using 100 μl or 50 μl/well goat anti-rabbit IgG-HRP conjugate in PBST-C for 1 h at room temperature with shaking at 450 rpm. After washing 5 times as described above, the ELISA was then developed using 100 μl BM soluble blue POD substrate (Roche, Switzerland), diluted 1:4 in water. The reaction was stopped after 5 min using 100 μl 1 M H₂SO₄. The OD (OD 450 nm-OD 620 nm) was then recorded.
Cynomolgus monkey VEGF-A is identical to human VEGF-A and was thus not tested separately.

[6] = target: T1, human VEGF-A; experiment: VEGF-A Quantikine competition ELISA; competitor: immobilised anti-VEGF-A monoclonal antibody
Description: Such assays are well known to the person skilled in the art. For designed ankyrin repeat domains with binding specificity to VEGF-A, a quantitative sandwich enzyme immunoassay technique was used according to the manufacturer (VEGF-A Quantikine kit DVE00, R&D Systems). A monoclonal antibody specific for VEGF-A was pre-coated onto a microplate. VEGF-A standards and mixtures of VEGF-A (20 pM) and Protein #18, #19, or #20 at varying concentrations were applied to the wells and any free VEGF-A present (i.e. not bound to the designed ankyrin repeat domain) is bound by the immobilized antibody. After washing away any unbound substances, an enzyme-linked polyclonal antibody specific for VEGF-A is added to the wells. Following a wash to remove any unbound antibody-enzyme reagent, a substrate solution is added to the wells and color develops in proportion to the amount of VEGF-A bound in the initial step. The color development is stopped and the intensity of the color is measured. […] IC₅₀ values were calculated from such titration curves obtained as described above using Graph Pad Prism software and standard procedures known to the person skilled in the art. For designed ankyrin repeat domains with binding specificity to HGF, a cMet receptor competition assay was performed. For that purpose, 5 nM of human cMet receptor in PBS were immobilized on Maxisorp plates overnight at 4° C. After washing with PBS 0.05% TWEEN 20, the plate was blocked for 2 h with shaking at 300 rpm using PBS containing 0.05% TWEEN 20 and 0.25% Casein at RT. A constant concentration of 5 nM human HGF was pre-incubated for 30 min at RT with a 1000 nM-1 pM of Proteins #23, #26, #28, and #29 (1:4 dilution series each) on a dilution plate in PBS 0.05% TWEEN 20. After washing of the ELISA plate with PBS 0.05% TWEEN, pre-incubated samples were transferred to the ELISA plate and plate was incubated for 2 h at RT with shaking at 300 rpm. After washing with PBS 0.25% TWEEN, 200 ng/ml anti human HGF antibody was added for 1 h at RT with shaking at 300 rpm. […]

[7] = target: T2, human HGF; experiment: SPR (ProteOn)
Method: SPR was measured using a ProteOn instrument (BioRad) and measurement was performed according standard procedures known to the person skilled in the art.

[8] = target: T2, human HGF; experiment: cMet receptor competition ELISA; 5 nM human HGF, immobilised human cMet
Description: Such assays are well known to the person skilled in the art. For designed ankyrin repeat domains with binding specificity to VEGF-A, a quantitative sandwich enzyme immunoassay technique was used according to the manufacturer (VEGF-A Quantikine kit DVE00, R&D Systems). A monoclonal antibody specific for VEGF-A was pre-coated onto a microplate. VEGF-A standards and mixtures of VEGF-A (20 pM) and Protein #18, #19, or #20 at varying concentrations were applied to the wells and any free VEGF-A present (i.e. not bound to the designed ankyrin repeat domain) is bound by the immobilized antibody. After washing away any unbound substances, an enzyme-linked polyclonal antibody specific for VEGF-A is added to the wells. Following a wash to remove any unbound antibody-enzyme reagent, a substrate solution is added to the wells and color develops in proportion to the amount of VEGF-A bound in the initial step. The color development is stopped and the intensity of the color is measured. […] IC₅₀ values were calculated from such titration curves obtained as described above using Graph Pad Prism software and standard procedures known to the person skilled in the art. For designed ankyrin repeat domains with binding specificity to HGF, a cMet receptor competition assay was performed. For that purpose, 5 nM of human cMet receptor in PBS were immobilized on Maxisorp plates overnight at 4° C. After washing with PBS 0.05% TWEEN 20, the plate was blocked for 2 h with shaking at 300 rpm using PBS containing 0.05% TWEEN 20 and 0.25% Casein at RT. A constant concentration of 5 nM human HGF was pre-incubated for 30 min at RT with a 1000 nM-1 pM of Proteins #23, #26, #28, and #29 (1:4 dilution series each) on a dilution plate in PBS 0.05% TWEEN 20. After washing of the ELISA plate with PBS 0.05% TWEEN, pre-incubated samples were transferred to the ELISA plate and plate was incubated for 2 h at RT with shaking at 300 rpm. After washing with PBS 0.25% TWEEN, 200 ng/ml anti human HGF antibody was added for 1 h at RT with shaking at 300 rpm. After washing with PBS 0.05% TWEEN, 100 ng/ml HRP conjugated polyclonal anti HGF species antibody was added for 30 min at RT with shaking at 300 rpm. Detection was using 1:3 diluted BM blue POD (Roche).

T1 sequence (P15692 other isoform, or with tags, fused parts or gaps limits assumed): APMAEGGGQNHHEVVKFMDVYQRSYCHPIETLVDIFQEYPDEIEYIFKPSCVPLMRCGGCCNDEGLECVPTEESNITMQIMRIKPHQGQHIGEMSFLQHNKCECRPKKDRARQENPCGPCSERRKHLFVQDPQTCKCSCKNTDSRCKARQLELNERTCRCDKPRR
T2 sequence (P14210 32-728 limits assumed): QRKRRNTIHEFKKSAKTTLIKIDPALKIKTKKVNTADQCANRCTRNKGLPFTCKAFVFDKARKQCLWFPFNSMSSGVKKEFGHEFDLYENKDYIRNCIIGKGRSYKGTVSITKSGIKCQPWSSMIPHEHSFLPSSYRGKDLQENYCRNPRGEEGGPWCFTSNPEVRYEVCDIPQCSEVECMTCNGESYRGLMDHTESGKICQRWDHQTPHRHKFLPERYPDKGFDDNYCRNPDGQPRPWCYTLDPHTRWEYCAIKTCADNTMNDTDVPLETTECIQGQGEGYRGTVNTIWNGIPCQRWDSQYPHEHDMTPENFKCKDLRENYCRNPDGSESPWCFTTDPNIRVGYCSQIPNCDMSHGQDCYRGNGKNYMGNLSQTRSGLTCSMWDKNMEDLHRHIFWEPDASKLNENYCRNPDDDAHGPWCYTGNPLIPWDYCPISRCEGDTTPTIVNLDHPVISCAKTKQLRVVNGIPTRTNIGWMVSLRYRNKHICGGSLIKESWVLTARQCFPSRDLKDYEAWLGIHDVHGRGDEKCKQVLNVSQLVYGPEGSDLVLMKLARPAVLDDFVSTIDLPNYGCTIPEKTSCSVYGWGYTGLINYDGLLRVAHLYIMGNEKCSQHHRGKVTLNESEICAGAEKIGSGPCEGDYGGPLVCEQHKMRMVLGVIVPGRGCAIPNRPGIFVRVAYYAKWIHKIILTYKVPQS
T3 sequence (P02768 25-609 limits assumed): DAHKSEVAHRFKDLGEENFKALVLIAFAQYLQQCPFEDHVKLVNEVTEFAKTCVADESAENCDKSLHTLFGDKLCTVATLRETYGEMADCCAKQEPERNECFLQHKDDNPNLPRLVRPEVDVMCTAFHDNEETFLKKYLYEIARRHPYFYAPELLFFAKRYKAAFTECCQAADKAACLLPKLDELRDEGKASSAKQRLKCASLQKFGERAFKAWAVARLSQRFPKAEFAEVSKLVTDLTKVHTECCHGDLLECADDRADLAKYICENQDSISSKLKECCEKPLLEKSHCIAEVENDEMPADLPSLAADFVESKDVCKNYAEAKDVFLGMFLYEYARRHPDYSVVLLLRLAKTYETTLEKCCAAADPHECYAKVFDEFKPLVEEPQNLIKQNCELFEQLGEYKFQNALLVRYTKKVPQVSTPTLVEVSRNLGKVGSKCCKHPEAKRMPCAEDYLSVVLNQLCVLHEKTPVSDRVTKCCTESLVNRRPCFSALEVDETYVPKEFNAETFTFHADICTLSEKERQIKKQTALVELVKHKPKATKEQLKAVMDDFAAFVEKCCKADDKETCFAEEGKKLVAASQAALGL

Row | Binder | EC50 [3] [pM] | EC50 [4] [pM] | IC50 [6] [pM] | also measured
1 | Protein #61 (designed binder) MRGSHHHHHHGSDLGKKLLEAARAGQDDEVRELLKAGADVNAKDYFSHTPLHLAARNGHLKIVEVLLKAGADVNAKDFAGKTPLHLAANEGHLEIVEVLLKAGADVNAQDIFGKTPADIAADAGHEDIAEVLQKAAGSPTPTPTTPTPTPTTPTPTPTGSDLDKKLLEAARAGQDDEVRILLKAGADVNAKDSTGWTPLHLAAPWGHPEIVEVLLKAGADVNAKDFQGWTPLHLAAAAGHLEIVEVLLKAGADVNAQDKSGKTPADLAADAGHEDIAEVLQKAA |  |  |  | EC50 [5]: 322 pM
2 | Protein #60 (designed binder) MRGSHHHHHHGSDLGKKLLEAARAGQDDEVRELLKAGADVNAKDYFSHTPLHLAARNGHLKIVEVLLKAGADVNAKDFAGKTPLHLAANEGHLEIVEVLLKAGADVNAQDIFGKTPADIAADAGHEDIAEVLQKAAGSPTPTPTTPTPTPTTPTPTPTGSDLGKKLLEAARAGQDDEVRILLKAGADVNAKDRYGDTPLHLAADIGHLEIVEVLLKAGADVNAEDYFGNTPLHLAASYGHLEIVEVLLKAGADVNAKDDYGNTPLHLAANTGHLEIVEVLLKAGADVNAQDKSGKTPADLAADAGHEDIAEVLQKAA |  |  |  | EC50 [5]: 225 pM
3 | Protein #20 (designed binder) MRGSHHHHHHGSDLDKKLLEAARAGQDDEVRILLKAGADVNAKDSTGWTPLHLAAPWGHPEIVEVLLKAGADVNAKDFQGWTPLHLAAAVGHLEIVEVLLKAGADVNAQDKSGKTPADLAADAGHEDIAEVLQKAA |  |  | 4 | 
4 | Protein #19 (designed binder) MRGSHHHHHHGSDLGKKLLEAARAGQDDEVRILLKAGADVNAKDSTGWTPLHLAAPWGHPEIVEVLLKAGADVNAKDFQGWTPLHLAAAAGHLEIVEVLLKAGADVNAQDKSGKTPADLAADAGHEDIAEVLQKAA |  |  | 13 | 
5 | Protein #18 (designed binder) MRGSHHHHHHGSDLDKKLLEAARAGQDDEVRILLKAGADVNAKDSTGWTPLHLAAPWGHPEIVEVLLKAGADVNAKDFQGWTPLHLAAAAGHLEIVEVLLKAGADVNAQDKSGKTPADLAADAGHEDIAEVLQKAA |  |  | 13 | 
6 | Protein #29 (designed binder) MRGSHHHHHHGSDLGKKLLEAARAGQDDEVRILMANGADVNAKYEDGLTPLHLAAFYGHLEIVEVLLKHGADVNATDAWGHTPLHLAAYYGHLEIVEVLLKYGADVNTHDKEGMTALHLAALTGHLEIVEVLLKNGADVNAQDKFGKTAFDISIDNGNEDLAEILQKAA |  |  |  | Kd [7]: 25 pM; IC50 [8]: 1360 pM

Second part, led by results:

Row | EC50 [3] [pM] | EC50 [4] [pM] | IC50 [6] [pM] | Binder | also measured
7 | 117 | 102 |  | Protein #69 (designed binder) MRGSHHHHHHGSDLGKKLLEAARAGQDDEVRILMANGADVNAKDYFSHTPLHLAARNGHLKIVEVLLKAGADVNAKDFAGKTPLHLAANDGHLEIVEVLLKHGADVNAQDIFGKTPADIAADAGHEDIAEVLQKLGSPTPTPTTPTPTPTTPTPTPTGSRSDLDKKLLEAARAGQDDEVRILLKAGADVNAKDYLGWTPLHLAAHEGHLEIVEVLLKAGADVNAKDVSGYTPLHLAAADGHLEIVEVLLKAGADVNAKDNTGWTPLHLSADLGHLEIVEVLLKAGADVNAQDKFGKTAFDISIDNGNEDLAEILQKLGSPTPTPTTPTPTPTTPTPTPTGSRSDLGKKLLEAARAGQDDEVRILLKAGADVNAKDRYGDTPLHLAADAGHLKIVEVLLKAGADVNAEDYFGNTPLHLAASAGHLEIVEVLLKAGADVNAKDDAGNTPLHLAANTGHLKIVEVLLKAGADVNAQDKSGKTPADLAADAGHEDIAEVLQKLN | factor more potent (EC50) than Protein #71 [1]: 2 fold; factor more potent (EC50) than Protein #71 [2]: 1.3 fold
8 | 107 | 73 |  | Protein #107 (designed binder) MRGSHHHHHHGSDLGKKLLEAARAGQDDEVRELLKAGADVNAKDYFSHTPLHLAARNGHLKIVEVLLKAGADVNAKDFAGKTPLHLAANDGHLEIVEVLLKAGADVNAQDIFGKTPADIAADAGHEDIAEVLQKAAGSPTPTPTTPTPTPTTPTPTPTGSDLDKKLLEAARAGQDDEVRILLKAGADVNAKDSTGWTPLHLAAPWGHPEIVEVLLKAGADVNAKDYQGWTPLHLAAAVGHLEIVEVLLKAGADVNAQDKSGKTPADLAADAGHEDIAEVLQKAAGSPTPTPTTPTPTPTTPTPTPTGSDLGKKLLEAARAGQDDEVRILLKAGADVNAKDRYGDTPLHLAADAGHLKIVEVLLKAGADVNAEDYFGNTPLHLAASAGHLEIVEVLLKAGADVNAKDDAGNTPLHLAANTGHLKIVEVLLKAGADVNAQDKSGKTPADLAADAGHEDIAEVLQKAAGSPTPTPTTPTPTPTTPTPTPTGSDLGKKLLEAARAGQDDEVRELLKAGADVNAKDYFSHTPLHLAARNGHLKIVEVLLKAGADVNAKDFAGKTPLHLAANDGHLEIVEVLLKAGADVNAQDIFGKTPADIAADAGHEDIAEVLQKAA | factor more potent (EC50) than Protein #69 [1]: 1.4 fold; factor more potent (EC50) than Protein #69 [2]: 1.1 fold
9 | 179 | 205 |  | Protein #71 (designed binder) MRGSHHHHHHGSDLGKKLLEAARAGQDDEVRILMANGADVNAKDYFSHTPLHLAARNGHLKIVEVLLKAGADVNAKDFAGKTPLHLAANDGHLEIVEVLLKHGADVNAQDIFGKTPADIAADAGHEDIAEVLQKLGGGGSGGGGSGGGGSGGGGSRSDLDKKLLEAARAGQDDEVRILLKAGADVNAKDYLGWTPLHLAAHEGHLEIVEVLLKAGADVNAKDVSGYTPLHLAAADGHLEIVEVLLKAGADVNAKDNTGWTPLHLSADLGHLEIVEVLLKAGADVNAQDKFGKTAFDISIDNGNEDLAEILQKLGGGGSGGGGSGGGGSGGGGSRSDLGKKLLEAARAGQDDEVRILLKAGADVNAKDRYGDTPLHLAADAGHLKIVEVLLKAGADVNAEDYFGNTPLHLAASAGHLEIVEVLLKAGADVNAKDDAGNTPLHLAANTGHLKIVEVLLKAGADVNAQDKSGKTPADLAADAGHEDIAEVLQKLN | 

Reference: US20160289285A1 (Molecular Partners, published 2016)
